Source: the supplement of paper PMC12764529
± gives the half width of the 95% confidence interval.

How the values were obtained:
[1] = folding stability dG unfold from trypsin proteolysis; higher = more stable
In short: (§1)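 Bayesian fitting of sequencing counts gave K50 for each design. Unfolding free energy followed by setting this against a sequence-predicted unfolded-state K50 and a shared folded-state K50, either per protease or with trypsin and chymotrypsin combined. The designs, under 80 residues and lacking cysteine, were digested in a PA-tagged cDNA display format at 11 threefold-diluted protease concentrations and without protease, and only those with AlphaFold2 dimer inter-PAE above 15 were kept.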

[2] = folding stability dG unfold from chymotrypsin proteolysis; higher = more stable
In short: as §1

[3] = folding stability dG unfold (combined trypsin and chymotrypsin); higher = more stable
In short: as §1

Sequence	folding stability dG unfold [1]	folding stability dG unfold [2]	folding stability dG unfold [3]
SAGGSAGGMTVEIDLDLEVPDGGVRLERLVVDPERPLVLAFLTLEDGTKRVIPFESLEELLERLSAGGSAGG [r6_547_TrMRF]	1.26 ± 0.064 kcal/mol	1.21 ± 0.032 kcal/mol	1.23 ± 0.11 kcal/mol
SAGGSAGGSMKVYRIKIEVDGKTYEIEVEMSEEEVKKLAEELGIKDVKIKKVEIEPVEEVEEKSAGGSAGGS [r12_292_TrROS_Hall]	0.859 ± 0.18 kcal/mol	2.07 ± 0.1 kcal/mol	1.92 ± 0.21 kcal/mol
SAGGSAGGSAGKKIIIKVKPNMTPEEIAKKLAEELGVEVEIKKVKKLKNGELYIEIEIKPSAGGSAGGSAGG [r17_222_TrROS_Hall]	3.09 ± 0.17 kcal/mol	2.48 ± 0.19 kcal/mol	2.82 ± 0.3 kcal/mol
SAGGMTLEERAEALAAERGWTVTSIELVEEKPGEVKFRVTFRLPDGSLETVEITVKRPPPVPPDNLLSAGGS [r8_309_JUSTAS]	3.73 ± 0.11 kcal/mol	3.726 ± 0.025 kcal/mol	3.74 ± 0.057 kcal/mol
SAMVIEIEIPSEELLKKLEELLPPGARIKKVEIVKENGKVKIIVELEPGMSEEEKERIKKKIEELLKEESAG [r14_306_TrROS_Hall]	4.92 ± 0.46 kcal/mol	3.59 ± 0.4 kcal/mol	> 6 kcal/mol
SAGGSAGGSKKIIRFKTKEEAEEALKKAKPGETLEITLPNGEKIEVKVTKVERVDGYYYIEVESAGGSAGGS [r12_907_TrROS_Hall]	2.53 ± 0.08 kcal/mol	3.44 ± 0.077 kcal/mol	3.13 ± 0.07 kcal/mol
SAGGSAGGSAMIGGGEDGNLVFLVTEDGKPLVLVAPPDEIKKILEELGIKDVVVVKPLPELSAGGSAGGSAG [r3_141_TrMRF]	1.18 ± 0.043 kcal/mol	-0.0844 ± 0.13 kcal/mol	0.762 ± 0.1 kcal/mol
SAGGSAGGSAGGSSMTLVTEETELPSPLRKVTKYTIDPKNPGKITSETTWYDPEGKPLGSAGGSAGGSAGGS [r4_297_JUSTAS]	-0.441 ± 0.33 kcal/mol	0.362 ± 0.17 kcal/mol	0.0774 ± 0.17 kcal/mol
SAGMKVIIGKNKIYVLVKLPNGEKKLFEIDIENIEKIKKIEIDIGKGYAKIGSKDNIPIYTKIKKVYNVSAG [r5_388_TrMRF]	2.2 ± 0.058 kcal/mol	2.82 ± 0.11 kcal/mol	2.6 ± 0.14 kcal/mol
SKKVLFIEAKSEEELKAAVKALLDAGYDEIVVSSPEAAKALKELLPDVKVTLVEVKPEKKLSEEEKKKLKSA [r9_639_TrROS_Hall]	0.505 ± 0.33 kcal/mol	1.42 ± 0.096 kcal/mol	1.05 ± 0.26 kcal/mol
SAGGSAGGAPILPEVKKIGFEKLPNGEYKVTIYVKGGKKLAEITFPPNTTIEQAVEDAIEALKSSAGGSAGG [r6_435_TrMRF]	2.3 ± 0.063 kcal/mol	2.38 ± 0.048 kcal/mol	2.28 ± 0.091 kcal/mol
SALVPIKGKYPVYEMRPEKDPNGNMKPEMRPVKVPIEFPFVVIDPENGKWVPADDIDPEDGRLVAPGLISAG [r14_122_TrROS]	1.14 ± 0.051 kcal/mol	-0.25 ± 0.045 kcal/mol	0.598 ± 0.064 kcal/mol
SAGGSMTTTTEDKGDGRIVTTTIPEEGTVVTTTIFYEPGGPKVETKTTTTPVPPLPSTVVTSPNLASAGGSA [r2_375_JUSTAS]	0.572 ± 0.093 kcal/mol	1.15 ± 0.13 kcal/mol	0.937 ± 0.34 kcal/mol
SAGGSAPPQTIPIIIKDPNGKVRIEPVQFDPGPGNFNWDIEHPNGEKHTITFTGPPDDLPPGDYIKSAGGSA [r15_596_TrROS]	-0.575 ± 0.13 kcal/mol	1.37 ± 0.068 kcal/mol	0.784 ± 0.17 kcal/mol
SAGGMITEEEILELEKRIREAAEAGDPETVEEELERAKEALEEYKKKGNKELLKKVEEIVKRAEELIASAGG [r13_137_JUSTAS]	3.8 ± 0.2 kcal/mol	2.7 ± 0.14 kcal/mol	3.35 ± 0.26 kcal/mol
SAMVLDVSELTKKAIEELKKKNPKPLSPEEIVELGKKVAAEVAEKLGIPLKEIKVEPTGKHPKAVAELPSAG [r14_147_TrMRF]	0.527 ± 0.096 kcal/mol	0.839 ± 0.059 kcal/mol	0.391 ± 0.52 kcal/mol
SAGGSAGGSAGEKEITISILVKGEDGRLYAIKMKAKITFDEKTNELKIEIEEISITPLPPSAGGSAGGSAGG [r17_129_TrROS_Hall]	3.98 ± 0.21 kcal/mol	4.29 ± 0.16 kcal/mol	4.32 ± 0.23 kcal/mol
SAGGSAGGSAGSYTVEPVELDDDSTLIRYTYPTDPNAVFPVVTVYPDGPVLTEPVVYSSSSAGGSAGGSAGG [r11_747_JUSTAS]	0.271 ± 0.037 kcal/mol	0.0377 ± 0.11 kcal/mol	0.244 ± 0.091 kcal/mol
SAGGSAKEIKPGEKIKVRNKETGKWFEATVTEVKKLENGELYVKVEVTIDGKTYTVTIPLKDIEVVSAGGSA [r15_62_TrROS_Hall]	4.3 ± 0.37 kcal/mol	4.72 ± 0.3 kcal/mol	4.88 ± 0.55 kcal/mol
SAGGSAGGSAKPKVKIKIEVTVNEDGTVTVRAEIEVNGKKYTIEVKIKIKAPKPEKVKLFKKSAGGSAGGSA [r18_507_TrROS_Hall]	0.919 ± 0.066 kcal/mol	-0.2 ± 0.84 kcal/mol	0.497 ± 0.48 kcal/mol
SAGGMLKFTDPKTGNEYTVTEYDPNTGVYLVTTTYPDGTTTTREFPGSLEDIVKHLEEEGYPTTVVGSAGGS [r16_748_JUSTAS]	2.83 ± 0.12 kcal/mol	3.38 ± 0.1 kcal/mol	3.24 ± 0.069 kcal/mol

Sequence	folding stability dG unfold [1]	folding stability dG unfold [2]	folding stability dG unfold [3]
SLKNGDPIMVKIEIEQYNPKNGKPQEQKHSIMIPPGDPVTINIPGLPPGYKVRVEIYPMDGKPIGEHTIPSA [r9_478_TrROS]	1.73 ± 0.12 kcal/mol	1.14 ± 0.047 kcal/mol	1.48 ± 0.14 kcal/mol
SAGGSAGGKKKIIKIKNKDGEYLIKVKTKDGKTVEFKKFKSLEEALKALPKEKIEKIEIIPLKKSAGGSAGG [r6_307_TrROS_Hall]	1.64 ± 0.085 kcal/mol	2.4 ± 0.1 kcal/mol	2.06 ± 0.42 kcal/mol
SAGGMTVKITIEVEEPGKTAEELAEELARELEKAGFKVEVVSVEVEEVDGRLIVTIEVKVDSEEALKASAGG [r13_979_TrROS_Hall]	2.36 ± 0.055 kcal/mol	2.55 ± 0.077 kcal/mol	2.52 ± 0.058 kcal/mol
SATGAIVLEKPVEFNIPDKNGKPVFKSKVLIFVDPGKDKVYALIYDPKTGKKLIVEFNSPEEVKKFFESSAG [r14_508_TrMRF]	1.65 ± 0.031 kcal/mol	1.54 ± 0.12 kcal/mol	1.65 ± 0.077 kcal/mol
SAGGSKTIVIDPEKVVKVEVKKNENGEKEIRIVVKNKDGEEKEVTIKPGEKLELPPKVEVVVLPEKSAGGSA [r2_347_TrROS_Hall]	-0.517 ± 0.28 kcal/mol	1.39 ± 0.18 kcal/mol	0.965 ± 0.19 kcal/mol
SAGGSKPVYKVKIEIEFNGKKIEIEIEAETEEEAKKAVEELLKKLFEENKDNLKIKVEVEKLPEKPSAGGSA [r2_111_TrROS_Hall]	2.95 ± 0.15 kcal/mol	3.15 ± 0.2 kcal/mol	3.11 ± 0.12 kcal/mol
SRLTVTSEVDPNGNSSTSTITYYDPSTGQPYTLTVTITKLPDGTYKVTITFPSNSTTTTFTLAPDETINLSA [r9_1220_JUSTAS]	2.58 ± 0.2 kcal/mol	3.27 ± 0.055 kcal/mol	3.04 ± 0.22 kcal/mol
SAGGSAPPPPETVRIRVRITLPDGRTLEIEIEVSREEAERLAKELADRLRELGYEVKVEIVEVEEVSAGGSA [r2_274_TrROS_Hall]	4.34 ± 0.31 kcal/mol	3.14 ± 0.28 kcal/mol	4.51 ± 0.32 kcal/mol
SAGGSAGGSAGSMTITRTLPGLTVTFTRLPDPNKETITFKLGDKWTTVPASTLSSSVISLSAGGSAGGSAGG [r11_152_JUSTAS]	-0.434 ± 0.38 kcal/mol	-0.142 ± 0.34 kcal/mol	-0.14 ± 0.21 kcal/mol
SAGGSAGGSAGPVRTIEILFPFDPGESLEFEIRIPGNGRKIKVSIEPYPNGWMRIKITVYSAGGSAGGSAGG [r17_131_TrROS]	4.75 ± 0.21 kcal/mol	5.68 ± 0.26 kcal/mol	5.69 ± 0.21 kcal/mol
SAGGPEVKILSKSYNPEKNTVTYNLEVYYGGKKYGALAEIHYDPKTGKYTITVYYPDKPDYKETLTFNSAGG [r13_615_TrMRF]	1.91 ± 0.077 kcal/mol	3.03 ± 0.079 kcal/mol	2.58 ± 0.21 kcal/mol
SAGMSPELLEALRKAAEEEGLEVVEIKVEKLPNGEVKITIRLKNGKEIKEITLPKDVKTPEEALKLIRESAG [r5_352_TrROS_Hall]	4.82 ± 0.34 kcal/mol	4.04 ± 0.081 kcal/mol	4.31 ± 0.1 kcal/mol
SAGGVTTPVTFTVPPSLDPEEAAERIAKELEEELKAASNKKVKVTVESVTPLPDGTLRVTVVITTEPSAGGS [r8_156_JUSTAS]	3.76 ± 0.2 kcal/mol	3.14 ± 0.067 kcal/mol	3.31 ± 0.086 kcal/mol
SAGGSAGGSAGMPTLKIKVLVRNEETGEWQEVEIELPEGMTLEELLAALPPEQVERVEPVSAGGSAGGSAGG [r11_386_TrROS_Hall]	2.42 ± 0.15 kcal/mol	3.07 ± 0.059 kcal/mol	2.85 ± 0.073 kcal/mol
SAGGSAGGSSIEEEYAANPENVTVTLPSPGGTPASTITVGNAPVTVTPLPDGDSAVTLDPANKSAGGSAGGS [r12_805_JUSTAS]	0.727 ± 0.045 kcal/mol	1.69 ± 0.035 kcal/mol	1.4 ± 0.043 kcal/mol
SAGGSAGGSAGGSMVITMTEEEIKALLPPGAKVKVEVVEDEETKEKFVRVEVYPAKEEESAGGSAGGSAGGS [r4_119_TrROS_Hall]	0.0616 ± 0.059 kcal/mol	-0.429 ± 0.15 kcal/mol	0.0851 ± 0.21 kcal/mol
SAGGSAGGSAGGMYVLIKITNPKTKKEISILIKVKPGDKITFTLPNGAKVEIIELPPEESAGGSAGGSAGGS [r10_957_TrROS_Hall]	3.3 ± 0.13 kcal/mol	4.28 ± 0.068 kcal/mol	3.92 ± 0.22 kcal/mol
SAGKKIEIDMSLEELKKLPGIKKVEVKNGKVYLEVDGKKIEITIRPPKPVLEFKEGMSEEEKKELLKKLSAG [r5_2_TrROS_Hall]	0.911 ± 0.093 kcal/mol	1.11 ± 0.1 kcal/mol	1.22 ± 0.21 kcal/mol
SAGGSAGGSAGGKPKPIKIEVYYDEKTGKLLVKVTLPNGKPVTLEFDDIGDIDEVKKAAGSAGGSAGGSAGG [r7_41_TrMRF]	1.36 ± 0.092 kcal/mol	2.97 ± 0.16 kcal/mol	2.44 ± 0.18 kcal/mol
SAGGWIPPGAEIEIDEIGPDGTITVKIKYPDGKPMSITMRRQRDKDGKRYIELYFPGSGRPIASFPIKSAGG [r13_527_TrROS]	1.84 ± 0.03 kcal/mol	1.57 ± 0.08 kcal/mol	1.78 ± 0.09 kcal/mol
